The text below walks through data of publication doi:10.1101/2021.06.23.449282.

This experiment deals with directed activation strategy TMPRSS2 (activated TMPRSS2 ectodomain, residues 109-492, DDDDK255 activation motif) (human) (UniProt O15393). Put plainly: enzyme inhibition assay.

As to “sunflower trypsin inhibitor-1 (from UniProt Q4GWU5 40-56) (peptide)”, the Ki (in general, a dissociation constant, usually derived from enzyme kinetics or from competition with a known ligand) stood at 400 nM. This counts as sub-micromolar.
